Changes are numbered by the printed parent chain.
T1: cynomolgus transferrin receptor (TfR) ectodomain (ECD) (cynomolgus, UniProt Q5RDH6 121-760 (Pongo abelii entry), biotinylated where captured on streptavidin)
T1 construct: also called cyno TfR; cynoTfR; not shown: C-terminal cleavable His- and Avi-tags
T1 chain: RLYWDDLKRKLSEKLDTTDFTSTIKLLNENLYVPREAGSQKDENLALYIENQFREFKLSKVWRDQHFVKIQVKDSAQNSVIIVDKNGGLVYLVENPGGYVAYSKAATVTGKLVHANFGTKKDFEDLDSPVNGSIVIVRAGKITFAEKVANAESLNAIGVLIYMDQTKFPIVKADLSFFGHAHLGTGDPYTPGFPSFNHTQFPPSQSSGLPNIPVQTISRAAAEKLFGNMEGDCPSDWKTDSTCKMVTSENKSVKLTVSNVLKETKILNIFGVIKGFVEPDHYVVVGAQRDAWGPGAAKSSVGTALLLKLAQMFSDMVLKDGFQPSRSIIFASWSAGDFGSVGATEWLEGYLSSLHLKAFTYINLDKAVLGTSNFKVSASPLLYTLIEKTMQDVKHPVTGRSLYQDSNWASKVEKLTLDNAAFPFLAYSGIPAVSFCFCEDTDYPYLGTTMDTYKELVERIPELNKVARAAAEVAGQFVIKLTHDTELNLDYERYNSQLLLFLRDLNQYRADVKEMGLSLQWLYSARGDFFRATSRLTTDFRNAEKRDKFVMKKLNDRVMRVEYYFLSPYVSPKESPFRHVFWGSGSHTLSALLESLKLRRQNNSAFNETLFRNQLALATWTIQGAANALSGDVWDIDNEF

B1: 3.2-14 (designed binder)
modified Fc polypeptide displayed on yeast (c-Myc tagged): PCPAPELLGGPSVFLFPPKPKDTLMISRTPEVTCVVVDVSHEDPEVKFNWYVDGVEVHNAKTKPREEQYNSTYRVVSVLTVLHQDWLNGKEYKCKVSNKALPAPIEKTISKAKGQPREPQVYTLPPSRDELTKNQVSLTCLVKGFYPSDIAVEWESLGHVWVGVKTTPPVLDSDGSFFLYSKLTVPKSTWQQGWVFSCSVMHEALHNHYTQKSLSLSPGK
notes: also called CH3C.3.2-14
B2: CH3C.35 (designed binder)
modified Fc polypeptide displayed on yeast (c-Myc tagged): B1 modified Fc polypeptide displayed on yeast (c-Myc tagged) with L157Y, H159T, V160E, V162S, G163S, V164Y, P186T, T189E, W194F
B3: 3.2-24 (designed binder)
modified Fc polypeptide displayed on yeast (c-Myc tagged): B1 modified Fc polypeptide displayed on yeast (c-Myc tagged) with G163H, V164T
notes: also called CH3C.3.2-24
B4: 3.2-5 (designed binder)
modified Fc polypeptide displayed on yeast (c-Myc tagged): B1 modified Fc polypeptide displayed on yeast (c-Myc tagged) with G163D, V164Q
notes: also called CH3C.3.2-5
B5: 3.2-17 (designed binder)
modified Fc polypeptide displayed on yeast (c-Myc tagged): B1 modified Fc polypeptide displayed on yeast (c-Myc tagged) with V164T
notes: also called CH3C.3.2-17
B6: 3.1-3 (designed binder)
modified Fc polypeptide displayed on yeast (c-Myc tagged): B1 modified Fc polypeptide displayed on yeast (c-Myc tagged) with G163A, V164T
notes: also called CH3C.3.1-3
B7: 3.4-19 (designed binder)
modified Fc polypeptide displayed on yeast (c-Myc tagged): B1 modified Fc polypeptide displayed on yeast (c-Myc tagged) with L157W, V162S, G163T, V164Y, T189N, W194Y
notes: also called CH3C.3.4-19
B8: 3.4-1 (designed binder)
modified Fc polypeptide displayed on yeast (c-Myc tagged): B1 modified Fc polypeptide displayed on yeast (c-Myc tagged) with L157W, H159F, V162S, G163T, V164Y, T189N, W194F
notes: also called CH3C.3.4-1
B9: 3.2-19 (designed binder)
modified Fc polypeptide displayed on yeast (c-Myc tagged): B1 modified Fc polypeptide displayed on yeast (c-Myc tagged) with G163N, V164Q
notes: also called CH3C.3.2-19
B10: 3.4-26 (designed binder)
modified Fc polypeptide displayed on yeast (c-Myc tagged): B1 modified Fc polypeptide displayed on yeast (c-Myc tagged) with L157W, H159T, V162G, G163T, V164Y, T189N, W194Y
notes: also called CH3C.3.4-26
B11: 3.2-1 (designed binder)
modified Fc polypeptide displayed on yeast (c-Myc tagged): B1 modified Fc polypeptide displayed on yeast (c-Myc tagged) with G163N, V164F
notes: also called CH3C.3.2-1
B12: 3.2-3 (designed binder)
modified Fc polypeptide displayed on yeast (c-Myc tagged): B1 modified Fc polypeptide displayed on yeast (c-Myc tagged) with G163E, V164Q
notes: also called CH3C.3.2-3

Biological target: T1, cynomolgus transferrin receptor (TfR) …
Assay: yeast surface display flow cytometry; yeast-displayed clone stained with 250 nM biotinylated cyno TfR, neutravidin-AF647; median fluorescence intensity
Protocol: (§1) For each clone, two million cells were washed three times in PBS+0.5% BSA at pH 7.4. […] Cells were stained with nuetravidin-Alexafluor647 (AF647) for 30 minutes at 4° C., then washed twice again. Expression was measured using anti-c-myc antibody with anti-chicken-Alexfluor488 (AF488) secondary antibody. Cells were resuspended, and median fluorescence intensity (MFI) of AF647 and AF488 was measured on a BD FACS CantoII. MFI was calculated for the TfR-binding population for each population and plotted with human TfR, cyno TfR, or control binding (FIG. 44).

| Binder | binding result |
| --- | --- |
| B1 | binds |
| B2 | binds |
| B3 | binds |
| B4 | binds |
| B5 | binds |
| B6 | binds |
| B7 | binds |
| B8 | binds |
| B9 | binds |
| B10 | binds |
| B11 | binds |
| B12 | binds |

What follows are binders tested against T2, human transferrin receptor (TfR) ectodomain (ECD) (human, UniProt P02786 121-760, biotinylated where captured on streptavidin) (assay: yeast surface display flow cytometry; yeast-displayed clone stained with 250 nM biotinylated human TfR, neutravidin-AF647; median fluorescence intensity).
T2 construct: also called human TfR; huTfR; not shown: C-terminal cleavable His- and Avi-tags
Protocol: as §1

| Binder | binding result |
| --- | --- |
| B1 | binds |
| B2 | binds |
| B3 | binds |
| B4 | binds |
| B5 | binds |
| B6 | binds |
| B7 | binds |
| B8 | binds |
| B9 | binds |
| B10 | binds |
| B11 | binds |
| B12 | binds |
